Data set [1] addresses 3xHA-Sec61β soluble domain-Omp25 TMD-3F4 (single substrate). To be noted: 3 μM recombinant 3xFLAG-UBQLN2 variants; parent: est. 49; read off a plot.
Data set [2] concerns the molecule itself. As to the kind of experiment: crystal structure; STI1-FrzS-TMD fusion construct; hanging-drop vapor diffusion at 4 °C, 2.5% MPD, 100 mM Tris pH 8.5; 1.98 Å.

Consider three molecules from PMC13083928, “ALS mutations disrupt self-association between the ubiquilin STI1 hydrophobic groove and internal placeholder sequences” (The EMBO Journal, 2026).

For the molecule “3xFLAG-UBQLN2 (wild type), recombinant (from UniProt Q9UHD9) P440L”, in data set [1], the response (Elution / Input) was 54.
For “3xFLAG-UBQLN2 (wild type), recombinant (from UniProt Q9UHD9) M446R”, the response (Elution / Input) in data set [1] came out at 57.

B1: variant of the VAMP2 TMD, as it stands in the crystallization construct (peptide)
peptide: MMIALGVACAIALAIAAVYF
notes: variant of the VAMP2 TMD; Written as a molecule of its own because it is joined with the STI1 domain on one chain for the structure; in the experiment it was part of m1; source: part of the STI1-FrzS-TMD fusion; E. coli BL21 DE3 pRIL, purified (Ni-NTA, SEC)
Regarding B1, in data set [2], the binding result is listed as “binds”.
